Measurements taken from PMC6080606, “Transbilayer phospholipid movement facilitates the translocation of annexin across membranes” (Journal of Cell Science, 2018).

T1: recombinant annexin A5, P08758
T1 chain: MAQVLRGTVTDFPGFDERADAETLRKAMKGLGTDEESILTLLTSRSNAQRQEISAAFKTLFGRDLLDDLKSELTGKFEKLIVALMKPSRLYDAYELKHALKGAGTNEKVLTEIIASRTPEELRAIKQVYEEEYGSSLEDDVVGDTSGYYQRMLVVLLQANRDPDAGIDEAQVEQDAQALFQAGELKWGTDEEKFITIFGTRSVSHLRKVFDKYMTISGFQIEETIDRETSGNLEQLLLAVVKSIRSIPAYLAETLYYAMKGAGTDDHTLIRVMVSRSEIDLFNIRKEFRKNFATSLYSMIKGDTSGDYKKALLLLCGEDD

T2: recombinant annexin A5 (UniProt P08758 1-320, Alexa Fluor 647 conjugated (the labelled copy held at a constant 20 µg/ml; position not stated); the titrated copy of the dimerisation assay is unlabelled)
T2 construct: annexin A5 (annexin V), recombinant; The products were matched from the reagents list: the Alexa Fluor 647 conjugate is likely Biolegend 640912 and the unlabelled protein likely Novus NBP1-30265; Labelled and unlabelled copies are written as one molecule for the self-association; also called annexin V; annexin A5 conjugated to Alexa Fluor 647; source: recombinant, bought (reagents list: annexin-V …)
T2 sequence (looked up): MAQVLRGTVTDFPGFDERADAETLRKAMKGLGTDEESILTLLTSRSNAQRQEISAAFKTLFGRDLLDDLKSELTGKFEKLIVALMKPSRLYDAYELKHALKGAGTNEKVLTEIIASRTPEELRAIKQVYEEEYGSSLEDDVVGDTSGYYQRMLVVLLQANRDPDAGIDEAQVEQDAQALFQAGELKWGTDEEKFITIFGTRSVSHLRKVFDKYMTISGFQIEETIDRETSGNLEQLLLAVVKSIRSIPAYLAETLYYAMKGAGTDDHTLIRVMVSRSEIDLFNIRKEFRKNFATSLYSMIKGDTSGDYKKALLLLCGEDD

B1: recombinant annexin A5, P08758 1-320 (natural protein)
chain: MAQVLRGTVTDFPGFDERADAETLRKAMKGLGTDEESILTLLTSRSNAQRQEISAAFKTLFGRDLLDDLKSELTGKFEKLIVALMKPSRLYDAYELKHALKGAGTNEKVLTEIIASRTPEELRAIKQVYEEEYGSSLEDDVVGDTSGYYQRMLVVLLQANRDPDAGIDEAQVEQDAQALFQAGELKWGTDEEKFITIFGTRSVSHLRKVFDKYMTISGFQIEETIDRETSGNLEQLLLAVVKSIRSIPAYLAETLYYAMKGAGTDDHTLIRVMVSRSEIDLFNIRKEFRKNFATSLYSMIKGDTSGDYKKALLLLCGEDD
modifications: here or on the partner: Alexa Fluor 647 conjugated (the labelled copy held at a constant 20 µg/ml; position not stated); the titrated copy of the dimerisation assay is unlabelled; Alexa Fluor 647 conjugated (the labelled copy held at a constant 20 µg/ml; position not stated); the titrated copy of the dimerisation assay is unlabelled
B2: cinnamycin (peptide, UniProt P29827 60-78, looked up)
peptide: CRQSCSFGPFTFVCDGNTK
notes: cinnamycin, a 19-amino-acid lantibiotic (the mature peptide cut from its precursor); source: bought: Santa Cruz Biotechnology (sc-391464)

Tests used:
[1] = molecular target: T1, recombinant annexin A5, P08758; assay: MST; Nanotemper Monolith NT.115; constant annexin A5-Alexa Fluor 647 (20 µg/ml) mixed with unlabelled recombinant annexin A5 from 7×10^−6 µg/ml to 100 µg/ml, 1 h at room temperature, with 5 µM Ca2+ (CaCl2); dimerisation (dimer to monomers), used as positive control; details: remark: other sources report otherwise
recombinant annexin A5 = molecular target: T2, recombinant annexin A5; assay: MST; Nanotemper Monolith NT.115; constant annexin A5-Alexa Fluor 647 (20 µg/ml) mixed with cinnamycin from 7×10^−8 mM to 1 mM, 1 h at room temperature; details: both partners purified

| Binder | Kd [1] [µM] | Kd (recombinant annexin A5) [µM] |
| --- | --- | --- |
| B1 | 1 | – |
| B2 | – | 614 |
